Laboratory results from US20150353933, “APTAMER AGAINST MIDKINE AND APPLICATIONS THEREOF” (RIBOMIC INC., published 2015).
Positions count from the first letter of the chain named.

Key:
[1] = biological target: T1, midkine (AP-MK) (Homo sapiens, UniProt P21741 P21741:23-143); assay: inhibition; AP-MK binding to HepG2 cells; details: tags: alkaline phosphatase fusion, APtag-5 vector (GenHunter), 293T culture supernatant
T1 chain: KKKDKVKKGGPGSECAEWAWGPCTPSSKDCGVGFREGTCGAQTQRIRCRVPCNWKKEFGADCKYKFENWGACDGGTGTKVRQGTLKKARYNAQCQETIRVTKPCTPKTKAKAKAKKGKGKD
Protocol: (§1) Using the above-mentioned AP-MK, a binding inhibitory experiment relative to TNB1 cell, which is a human neuroblastoma cell, was performed. TNB1 cells were seeded at 1×10⁵ cells/well on a 6-well plate coated with collagen I. The next day, the cells were washed with 1 mL of HBHA (HBSS+0.5 mg/mL BSA+20 mM HEPES pH 7.0), 1 U/mL AP or AP-MK, and further, the aptamer shown in SEQ ID NO: 7-1 at a final concentration of 100 nM were added and the mixture was maintained at room temperature for 90 min. After washing 5 times with 1 mL of HBHA, 200 μL of Cell Lysis Buffer (manufactured by GenHunter) was added and the mixture was stirred for 5 min. The cells were scraped with a Scraper and placed in an Eppendorf tube, vortexed for 10 sec and centrifuged at 15000 rpm for 2 min. The supernatant was recovered, and heated at 65° C. for 10 min to inactivate endogenous AP. Using 50 μL, color development was performed in the same manner as above (15 min) and the activity of AP was calculated.
(§2) An altered form of SEQ ID NO: 7-1 was produced, and AP-MK binding inhibitory experiment was performed using HepG2 and TNB1 cells and in the same manner as above. The sequences of the altered forms actually produced are shown below. While Poly dA for BIAcore measurement is added to the 3′-terminus of the aptamers shown in SEQ ID NO: 9 and SEQ ID NO: 9-1-5, an influence on the activity is not expected. The 50% inhibitory concentration (IC₅₀) was determined from the concentrations at two, above and below points sandwiching the 50% inhibitory activity (Table 2).

[2] = biological target: T2, midkine (MK) (Homo sapiens, UniProt P21741 P21741:21-143); assay: SPR; confirmed MK binding, as in Example 3; details: tags: produced in yeast
T2 sequence: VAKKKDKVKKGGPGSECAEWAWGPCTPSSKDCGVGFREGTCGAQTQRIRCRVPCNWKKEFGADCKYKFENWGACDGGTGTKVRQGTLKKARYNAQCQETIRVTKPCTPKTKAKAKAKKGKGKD
Protocol: (§3) The binding activities of the oligonucleotides shown by SEQ ID NO:1 to 6 obtained in Examples 1 and 2 for MK were evaluated by a surface plasmon resonance method. The measurements were performed using BIAcore2000, manufactured by BIAcore. The sensor chip used was the SA chip, which had streptavidin immobilized thereon. Bound thereto was about 1000 RU of a 16-nucleotide Poly dT with biotin bound to the 5′ end thereof. […] 70 μL of MK for analyte, prepared at 0.5 μM, was injected.
Those aptamers were evaluated by the surface plasmon resonance method in the same manner as in Example 3, and they were confirmed to have MK binding activity.

[3] = biological target: T1, midkine (AP-MK); assay: inhibition; AP-MK binding to HepG2, 500 nM aptamer; details: tags: alkaline phosphatase fusion, APtag-5 vector (GenHunter), 293T culture supernatant
Protocol: as §1
An experiment similar to the above was performed using HepG2 cells which are human liver cancer-derived cells. It is already known that MK is deeply involved in the growth and inhibition of apoptosis of HepG2 cells (Ohuchida et al., Cancer 100, 2430-2436, 2004; Dai et al., World J. Gastroenterol. 15, 1966-1972, 2009). When the aptamer was added to the system, the binding of AP-MK and HepG2 was inhibited (Table 1).

[4] = biological target: T2, midkine (MK); assay: SPR; strongly binds; 0.5 uM MK analyte; solution A; details: tags: produced in yeast
Protocol: as §3

[5] = biological target: T2, midkine (MK); assay: SPR; strongly binds; 0.5 uM MK analyte; solution A (Na, K, Ca, Mg, Tris pH 7.6); details: tags: produced in yeast
Protocol: as §3

[6] = biological target: T1, midkine (AP-MK); assay: inhibition; AP-MK binding to TNB1 cells; details: tags: alkaline phosphatase fusion, APtag-5 vector (GenHunter), 293T culture supernatant
Protocol: as §1, §2

B1: SEQ ID NO: 12 (ssRNA)
RNA: CGCAAUGGUGAGUGGUUUAUCCGCCUGCG
modifications: 3' idT; 2'-OMe at 1-8,14,15,18,23,25-29; 2'-F at U9,U13,U16,U17,U20,C21,C22,C24; 2'-OH at G10,A11,G12,A19
IC50 [1]: < 2 nM

GUCUGUGUGGUUUAUCCGGAC (ssRNA, 2'-F pyrimidines) [SEQ ID NO: 8]
binding result [2]: binds

B2: SEQ ID NO: 10 (ssRNA)
RNA: GCUCGCAAUGGUGAGUGGUUUAUCCGCCUGCGCAGC
modifications: 3' idT; 2'-OMe at 1-11,17,18,21,26,28-36; 2'-F at U12,U16,U19,U20,U23,C24,C25,C27; 2'-OH at G13,A14,G15,A22
IC50 [1]: < 2 nM

B3: SEQ ID NO: 11 (ssRNA)
RNA: GCGCAAUGGUGAGUGGUUUAUCCGCCUGCGC
modifications: 3' idT; 2'-OMe at 1-10,12,15,16,19,24,26-31; 2'-F at U14,U17,U18,U21,C22,C23,C25; 2'-OH at G11,G13,A20
IC50 [1]: 6.3 nM

B4: SEQ ID NO: 11-1 (ssRNA)
RNA: B3 RNA
modifications: 3' idT; 2'-OMe at 1-10,12,15,16,19,23-31; 2'-F at U14,U17,U18,U21,C22; 2'-OH at G11,G13,A20
IC50 [1]: 7.8 nM

B5: SEQ ID NO: 8-2 (ssRNA)
RNA: GUCUGUGUGGUUUAUCCGGAC
modifications: 5' 80PEG4ts; 3' idT; 2'-OMe at G1,G9,G10,U13,G18,G19,A20; 2'-F at other pyrimidines except C21 (unmodified as printed); 2'-OH at G5,G7,A14
binding result [2]: binds | activity [3]: 61 % inhibition

B6: SEQ ID NO: 2 (ssRNA)
RNA: GGGACACAAUGGACGUCUGUGUGGUUUAUCCGGAUGUCCGUCGUCCUCUGUCAUGUAACGGCCGACAUGAGAG
modifications: 2'-F pyrimidines; 16-nt poly A at 3' end for SPR
binding result [4]: binds

B7: SEQ ID NO: 5 (ssRNA)
RNA: B6 RNA with U49G
modifications: 2'-F pyrimidines; 16-nt poly A at 3' end for SPR
binding result [4]: binds

B8: SEQ ID NO: 6 (ssRNA)
RNA: B6 RNA with U35C, A53G
modifications: 2'-F pyrimidines; 16-nt poly A at 3' end for SPR
binding result [4]: binds

B9: SEQ ID NO: 4 (ssRNA)
RNA: B6 RNA with U51C
modifications: 2'-F pyrimidines; 16-nt poly A at 3' end for SPR
binding result [4]: binds

B10: SEQ ID NO: 3 (ssRNA)
RNA: B6 RNA with A53G
modifications: 2'-F pyrimidines; 16-nt poly A at 3' end for SPR
binding result [4]: binds

B11: SEQ ID NO: 9 (mixed)
RNA: GCCAUCGCAAUGGUGAGUGGUUUAUCCGCCUGCGCAUGGCAAAAAAAAAAAAAAAA
modifications: 2'-OMe at 1-3 and 38-40; 2'-F at all other pyrimidines; 3' 16-nt poly dA (DNA)
IC50 [1]: 3.3 nM

B12: SEQ ID NO: 9-3 (mixed)
RNA: B11 RNA
modifications: 2'-OMe at C2,C3,C40 and RNA purines except G15,G17,A24 (2'-OH); 2'-F at all other pyrimidines; 3' 16-nt poly dA (DNA)
IC50 [1]: 3 nM

B13: SEQ ID NO: 9-5 (mixed)
RNA: B11 RNA
modifications: 2'-OMe at C2,C3,C40 and RNA purines except G15,A16,G17 (2'-OH); 2'-F at all other pyrimidines; 3' 16-nt poly dA (DNA)
IC50 [1]: 19 nM

B14: SEQ ID NO: 9-2 (mixed)
RNA: B11 RNA
modifications: 2'-OMe at C2,C3,C40 and RNA purines except A16,G17,A24 (2'-OH); 2'-F at all other pyrimidines; 3' 16-nt poly dA (DNA)
IC50 [1]: 13 nM

B15: SEQ ID NO: 9-1 (mixed)
RNA: B11 RNA
modifications: 2'-OMe at C2,C3,C40 and RNA purines except G15,A16,G17,A24 (2'-OH); 2'-F at all other pyrimidines; 3' 16-nt poly dA (DNA)
IC50 [1]: 1.6 nM

B16: SEQ ID NO: 9-4 (mixed)
RNA: B11 RNA
modifications: 2'-OMe at C2,C3,C40 and RNA purines except G15,A16,A24 (2'-OH); 2'-F at all other pyrimidines; 3' 16-nt poly dA (DNA)
IC50 [1]: 4.1 nM

B17: SEQ ID NO: 8-3 (ssRNA)
RNA: GUCUGUGUGGUUUAUCCGGAC
modifications: 5' 80PEG4gs; 3' idT; 2'-OMe at G1,G9,G10,U13,G18,G19,A20; 2'-F at other pyrimidines except C21 (unmodified as printed); 2'-OH at G5,G7,A14
binding result [2]: binds | activity [3]: 65 % inhibition

B18: SEQ ID NO: 8-4 (ssRNA)
RNA: GUCUGUGUGGUUUAUCCGGAC
modifications: 5' 80PEG4ts; 3' idT; 2'-OMe at 1-3,8-10,13,18-21; 2'-F at U4,U6,U11,U12,U15,C16,C17; 2'-OH at G5,G7,A14
binding result [2]: binds | activity [3]: 58 % inhibition

B19: SEQ ID NO: 8-1 (ssRNA)
RNA: GUCUGUGUGGUUUAUCCGGAC
modifications: 2'-OMe at G1,G9,G10,U13,G18,G19,A20; 2'-F at all other pyrimidines; 2'-OH at G5,G7,A14
binding result [2]: binds | activity [3]: 76 % inhibition

B20: SEQ ID NO: 1 (ssRNA)
RNA: GGGAGAGGAGAAGAGGAAGCUAUCGCAAUGGUGAGUGGUUUAUCCGCCUGCGCAUGGUUAGAGGACAGGAAUGAGGA
modifications: 2'-F pyrimidines; 16-nt poly A at 3' end for SPR
binding result [5]: binds

B21: SEQ ID NO: 8-5 (ssRNA)
RNA: GUCUGUGUGGUUUAUCCGGAC
modifications: 5' 80PEG4gs; 3' idT; 2'-OMe at 1-3,8-10,13,18-21; 2'-F at U4,U6,U11,U12,U15,C16,C17; 2'-OH at G5,G7,A14
binding result [2]: binds | activity [3]: 61 % inhibition

GCCAUCGCAAUGGUGAGUGGUUUAUCCGCCUGCGCAUGGC (ssRNA, 2'-OMe at 1-3 and 38-40; 2'-F at all other pyrimidines; other purines 2'-OH) [SEQ ID NO: 7-1]
binding result [2]: binds | IC50 [6]: 18 nM | IC50 [1]: 6 nM | activity [3]: 93 % inhibition

B22: SEQ ID NO: 7-5 (ssRNA)
RNA: GCCAUCGCAAUGGUGAGUGGUUUAUCCGCCUGCGCAUGGC
modifications: 3' idT; 2'-OMe at 1-13,16,19,20,23,28,30-40; 2'-F at U14,U18,U21,U22,U25,C26,C27,C29; 2'-OH at G15,G17,A24
IC50 [1]: < 2 nM

B23: SEQ ID NO: 7-3 (ssRNA)
RNA: B22 RNA
modifications: 5' 40PEG2ts; 3' idT; 2'-OMe at 1-13,19,20,23,28,30-40; 2'-F at U14,U18,U21,U22,U25,C26,C27,C29; 2'-OH at G15,A16,G17,A24
IC50 [6]: 11 nM | IC50 [1]: 1.7 nM

B24: SEQ ID NO: 7-8 (ssRNA)
RNA: B22 RNA
modifications: 3' idT; 2'-OMe at 1-13,16,19,20,23,28-40; 2'-F at U14,U18,U21,U22,U25,C26,C27; 2'-OH at G15,G17,A24
IC50 [1]: < 2 nM

GCCAUCGCAAUGGUGAGUGGUUUAUCCGCCUGCGCAUGGC (ssRNA, 2'-F pyrimidines) [SEQ ID NO: 7]
binding result [2]: binds

B25: SEQ ID NO: 7-7 (ssRNA)
RNA: B22 RNA
modifications: 3' idT; 2'-OMe at 1-13,16,19,20,23,27,28,30-40; 2'-F at U14,U18,U21,U22,U25,C26,C29; 2'-OH at G15,G17,A24
IC50 [1]: < 2 nM

B26: SEQ ID NO: 7-4 (ssRNA)
RNA: B22 RNA
modifications: 5' 40PEG2ts; 3' idT; 2'-OMe at C2,C3,C40 and all purines except G15,A16,G17,A24 (2'-OH); 2'-F at all other pyrimidines
IC50 [6]: 18 nM | IC50 [1]: 3.6 nM

B27: SEQ ID NO: 7-9 (ssRNA)
RNA: B22 RNA
modifications: 3' idT; 2'-OMe at 1-13,16,17,19,20,23,28,30-40; 2'-F at U14,U18,U21,U22,U25,C26,C27,C29; 2'-OH at G15,A24
IC50 [1]: 4.7 nM

GCCAUCGCAAUGGUGAGUGGUUUAUCCGCCUGCGCAUGGC (ssRNA, 5' 40PEG2ts; 3' idT; 2'-OMe at 1-3 and 38-40; 2'-F at all other pyrimidines) [SEQ ID NO: 7-2]
IC50 [6]: 26 nM | IC50 [1]: 4.9 nM

B28: SEQ ID NO: 7-6 (ssRNA)
RNA: B22 RNA
modifications: 3' idT; 2'-OMe at 1-14,16,19,20,23,28,30-40; 2'-F at U18,U21,U22,U25,C26,C27,C29; 2'-OH at G15,G17,A24
IC50 [1]: < 2 nM
